The source of these data is publication PMC2649783.

The target in the series is HUαβ (Escherichia coli (overexpressed in …, UniProt P0ACF0;P0ACF4 1-90;1-90)). The series is described as follows: ITC. For orientation: Isothermal titration calorimetry measures the heat released or taken up as one component is titrated into another.
HUαβ (Escherichia coli, sequence (P0ACF0 whole entry, chain 1 of 2): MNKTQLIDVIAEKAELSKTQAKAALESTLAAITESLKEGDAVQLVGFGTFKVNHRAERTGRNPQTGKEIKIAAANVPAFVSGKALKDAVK
HUαβ (Escherichia coli, sequence (P0ACF4 whole entry, chain 2 of 2): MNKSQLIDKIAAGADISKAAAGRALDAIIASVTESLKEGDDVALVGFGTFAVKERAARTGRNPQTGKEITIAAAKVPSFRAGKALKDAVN

B1: 38 bp DNA (dsDNA)
DNA 1: CGGTCAGTTCAAGCCCTTCTAAGTTTGTAGACACCAGC
DNA 2: GCTGGTGTCTACAAACTTAGAAGGGCTTGAACTGACCG
Regarding B1, the binding result is listed as “binds”.
